The source of these data is patent US20220056142A1 (Sanofi, published 2022).

The labels stand for the following.
T1: human FGFR3 isoform IIIc (human, UniProt P22607 23-375, limits assumed)
T1 construct: also called hFGFR3IIIc; FGFR3 IIIc
T1 sequence: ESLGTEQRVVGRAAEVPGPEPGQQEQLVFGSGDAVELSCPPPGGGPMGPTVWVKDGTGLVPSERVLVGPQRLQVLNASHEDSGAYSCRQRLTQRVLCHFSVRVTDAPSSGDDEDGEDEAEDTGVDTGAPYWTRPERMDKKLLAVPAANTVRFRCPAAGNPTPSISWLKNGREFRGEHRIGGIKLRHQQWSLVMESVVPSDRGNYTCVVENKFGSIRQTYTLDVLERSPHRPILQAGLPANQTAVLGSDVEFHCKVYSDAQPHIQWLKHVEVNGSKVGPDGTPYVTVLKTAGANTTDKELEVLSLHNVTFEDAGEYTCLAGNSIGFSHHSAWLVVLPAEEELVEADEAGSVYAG

T2: human FGFR3 isoform IIIb (human, UniProt P22607-2 23-377)
T2 construct: Isoform IIIb differs from the canonical IIIc entry in the D3 domain; also called hFGFR3IIIb; FGFR3 IIIb
T2 sequence (looked up): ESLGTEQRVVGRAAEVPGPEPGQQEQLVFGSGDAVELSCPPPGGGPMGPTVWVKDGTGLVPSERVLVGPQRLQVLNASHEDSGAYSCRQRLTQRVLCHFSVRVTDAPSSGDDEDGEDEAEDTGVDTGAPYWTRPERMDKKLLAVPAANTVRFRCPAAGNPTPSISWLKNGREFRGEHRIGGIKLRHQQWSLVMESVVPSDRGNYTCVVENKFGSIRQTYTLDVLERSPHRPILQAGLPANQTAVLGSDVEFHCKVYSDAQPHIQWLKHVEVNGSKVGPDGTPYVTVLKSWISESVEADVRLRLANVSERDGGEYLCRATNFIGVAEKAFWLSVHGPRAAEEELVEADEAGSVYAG

T3: cynomolgus FGFR3 (cynomolgus)
T3 construct: also called cynoFGFR3
T3 chain: T1 sequence with A13V, P17S, G22S, T57A, R94L, R171K

T4: human FGFR3 (human, UniProt P22607 23-375)
T4 construct: also called hFGFR3
T4 sequence: T1 sequence

T5: mouse FGFR3 (mouse, UniProt Q61851 21-369)
T5 construct: extracellular domain; also called mFGFR3
T5 sequence (looked up): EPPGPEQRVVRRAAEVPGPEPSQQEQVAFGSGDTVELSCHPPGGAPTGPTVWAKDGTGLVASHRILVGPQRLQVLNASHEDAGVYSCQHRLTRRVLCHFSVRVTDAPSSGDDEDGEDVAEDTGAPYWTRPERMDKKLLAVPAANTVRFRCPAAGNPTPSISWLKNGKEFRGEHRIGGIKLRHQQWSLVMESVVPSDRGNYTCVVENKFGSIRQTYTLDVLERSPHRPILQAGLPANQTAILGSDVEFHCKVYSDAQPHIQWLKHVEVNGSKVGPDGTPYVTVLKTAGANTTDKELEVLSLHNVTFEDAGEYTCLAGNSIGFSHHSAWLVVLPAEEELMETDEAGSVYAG

T6: N-terminal ECD protein of mouse FGFR3 with a terminal avidin tag (mouse, UniProt Q61851 21-369)
T6 construct: extracellular domain; not shown: terminal avidin tag
T6 sequence (looked up): T5 sequence (looked up)

B1: KE63 (antibody, V domains shown)
VH: QVQLQQSGAELVRPGASVTLSCKASGSTFSDFEIHWVKQTPVHGLEWIGGIDPETGGTAYNQKFKGKAILTADRSSSTAYMELRSLTSEDSAVYYCTRNYDGYSQTMDYWGQGTSVTVSS
VL: NIMMTQSPSSLAVSAGEKVTMSCKSSQSVLYSSNQKNYLAWYQQKPGQSPKLLIYWASTRESGVPDRFTGSGSGTDFTLTISSVQAEDLAVYYCHQYLSSYTFGGGTKLEMK
notes: Mouse monoclonal antibody from a hybridoma; also called anti-FGFR3 antibody KE63
B2: KC18 (antibody, V domains shown)
VH: B1 VH with S27D, S30T, G50D, K65R, K67R, I69M, N99T, S104P, Q105Y, T106A
VL: DIVMSQSPSSLAVSVGEKVTMSCKSSQSLLYSNNQKNYLAWYQQKPGQSPKLLIYWASTRESGVPDRFTGSGSGTDFTLTISSVKAEDLAVYYCQQYYSYRTFGGGTKLEIK
notes: Mouse monoclonal antibody from a hybridoma; also called anti-FGFR3 antibody KC18; KC18 mouse antibody
B3: KE94 (antibody, V domains shown)
VH: B1 VH with S30T, G50A, D73V, R74K, E82G, Q105R
VL: B1 VL with T78S, T80S, A86T, K108R
notes: Mouse monoclonal antibody from a hybridoma; also called anti-FGFR3 antibody KE94
B4: KE58 (antibody, V domains shown)
VH: EVQLQQSGPDLVKPGASVKISCKASGYTVTDYYMNWVKQSHGKSLEWIGDINPNNGVTTYNQKFKDKATLTVDKSSSTAYMELRSLTSEDSAVYYCAREEDFDGFDYWGQGTTLTVSS
VL: DIVMTQSHKFMSTSVGDRVSITCKASQDVSTGVAWYQQKPGQSPQLLIYWASTRHTGVPDRFTGSGSGTDYILTIRSVQAEDLALYYCQQHYSTPLTFGAGTKLELK
notes: Mouse monoclonal antibody from a hybridoma; also called anti-FGFR3 antibody KE58
B5: KE35 (antibody, V domains shown)
VH: EVQLQQSGPELVKPGASVKMSCKASGYTFTDYNMHWVKQSHGKSLEWIGYINPNNGGTRYNQKFKGKATLTVNKSSSTAYMELRSLTSEDSAVYYCARERDYDGAMDYWGQGTSVTVSS
VL: DIQMTQSPSSLSASLGGKVTITCKASQDINKFIAWYQHKPGKGPRLLIHYTSTLQPGIPSRFSGSGSGRDYSFSISNLEPEDIATYYCLQYDNLLWTFGGGTKLEIK
notes: Mouse monoclonal antibody from a hybridoma; also called anti-FGFR3 antibody KE35
B6: KE42 (antibody, V domains shown)
VH: B5 VH with E46Q, R59N, K63N, G66D, S77T, A105S, Y108F
VL: B5 VL with Y87F
notes: Mouse monoclonal antibody from a hybridoma; also called anti-FGFR3 antibody KE42
B7: KC18 (antibody, V domains shown)
VH: B1 VH with S27D, S30T, G50D, K65R, K67R, I69M, N99T, S104P, Q105Y, T106A
VL: B2 VL
notes: Mouse hybridoma antibody; also called parental KC18 antibody
B8: KC18_Hu28 (antibody, human IgG1, kappa, V domains shown)
VH: QVQLVQSGAEVVKPGASVKLSCKASGDTFTDFEIHWVKQAPGQGLEWIGDIDPETGGTAYNQKFQGRATLTADRSSSTAYMELSRLRSDDTAVYYCTRTYDGYPYAMDYWGQGTTVTVSS
VL: DIVMTQSPSSLAVSLGERVTMNCKSSQSLLYSNNQKNYLAWYQQKPGQSPKLLIYWASTRESGVPDRFSGSGSGTDFTLTISSVQAEDVAVYYCQQYYSYRTFGGGTKLEIKR
B9: KC18_Hu34 (antibody, human IgG1, kappa, V domains shown)
VH: B8 VH
VL: DIVMTQSPLSLAVTVGEKVSISCRSSQSLLYSNNQKNYLAWYQQKPGQSPKLLIYWGSTRESGVPDRFSGSGSGTDFTLTISRVEAEDVGVYYCQQYYSYRTFGGGTKLEIKR
B10: KC18_Hu16 (antibody, human IgG1, kappa, V domains shown)
VH: EVQLVQSGAEVKKPGATVKLSCKASGDTFTDFEIHWVQQAPGKGLEWIGDVDPETGGTAYAEKFQGRATLTADRSTDTAYMELSSLRSEDTAVYYCTRTYDGYPYAMDYWGQGTLVTVSS
VL: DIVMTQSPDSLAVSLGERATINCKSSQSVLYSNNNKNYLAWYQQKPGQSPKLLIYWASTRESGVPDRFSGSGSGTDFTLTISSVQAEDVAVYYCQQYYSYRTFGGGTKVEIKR
B11: KC18_Hu27 (antibody, human IgG1, kappa, V domains shown)
VH: B8 VH with S17T, Q43K, Q62E, S76T, R85S, D89E
VL: B8 VL
B12: KC18_Hu19 (antibody, human IgG1, kappa, V domains shown)
VH: B10 VH with E1Q, K12V, L20I, V51I, A61N, D77S, T97A, L115T
VL: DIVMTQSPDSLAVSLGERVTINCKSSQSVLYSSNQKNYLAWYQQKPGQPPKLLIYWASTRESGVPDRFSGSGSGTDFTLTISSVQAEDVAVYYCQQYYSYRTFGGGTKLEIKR
B13: KC18_Hu13 (antibody, human IgG1, kappa, V domains shown)
VH: B10 VH with E1Q, T17S, L20V, Q38R, K43Q, V51I, G57S, A59S, E62Q, D77S
VL: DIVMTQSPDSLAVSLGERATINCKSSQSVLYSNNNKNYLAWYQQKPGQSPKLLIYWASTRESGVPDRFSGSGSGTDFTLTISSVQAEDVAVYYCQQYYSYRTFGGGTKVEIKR
B14: KC18_Hu12 (antibody, human IgG1, kappa, V domains shown)
VH: B10 VH with M107F
VL: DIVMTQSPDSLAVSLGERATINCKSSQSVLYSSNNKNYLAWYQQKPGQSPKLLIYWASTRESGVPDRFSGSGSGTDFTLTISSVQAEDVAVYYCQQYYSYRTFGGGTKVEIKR
B15: KC18_Hu10 (antibody, human IgG1, kappa, V domains shown)
VH: B10 VH
VL: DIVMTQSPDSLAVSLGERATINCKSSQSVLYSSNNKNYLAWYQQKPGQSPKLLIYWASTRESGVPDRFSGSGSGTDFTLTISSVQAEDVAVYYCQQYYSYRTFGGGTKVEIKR
B16: KC18_Hu18 (antibody, human IgG1, kappa, V domains shown)
VH: B10 VH with M107F
VL: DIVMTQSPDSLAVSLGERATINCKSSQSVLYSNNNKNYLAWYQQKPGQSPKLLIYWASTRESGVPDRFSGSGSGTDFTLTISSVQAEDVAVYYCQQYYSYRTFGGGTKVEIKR
B17: KC18_Hu7 (antibody, human IgG1, kappa, V domains shown)
VH: B10 VH with E1Q, T17S, L20V, Q38R, K43Q, V51I, G57S, A59S, E62Q, D77S
VL: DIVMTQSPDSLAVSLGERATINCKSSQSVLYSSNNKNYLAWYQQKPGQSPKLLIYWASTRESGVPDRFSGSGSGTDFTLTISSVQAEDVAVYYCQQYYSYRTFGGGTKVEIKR
B18: KC18_Hu23 (antibody, human IgG1, kappa, V domains shown)
VH: B10 VH with E1Q, K12V, L20I, V51I, A61N, D77S, T97A, L115T
VL: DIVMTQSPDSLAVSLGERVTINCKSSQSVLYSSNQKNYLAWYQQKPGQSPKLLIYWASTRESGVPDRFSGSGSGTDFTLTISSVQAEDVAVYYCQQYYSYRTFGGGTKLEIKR

Positions count from the first letter of the chain named.

In one test the target is T1, human FGFR3 isoform IIIc. The experiment in a line: reactivity grade (Table 2); method not given.
For B1, the binding result was “binds”.
Same read-out and setting: the result for B2 reads “binds”.
Still for that read-out and setting: the result for B3 reads “binds”.
For B4, the binding result is reported as “binds”.
B5: the binding result was “binds”.
As for B6, the binding result was “binds”.

The target in the next test is T2, human FGFR3 isoform IIIb. Nature of the test: reactivity grade (Table 2); method not given.
As for B1, the binding result is reported as “binds”.
Turning to B2, the binding result was “binds”.
Same read-out and setting: the result for B3 reads “binds”.
Still for that read-out and setting: next, B4: “binds”; B5: “binds”.
On the same count and under the same terms, next, B6: “binds”.

A further test has as its target T3, cynomolgus FGFR3. The experiment in a line: reactivity grade (Table 2); method not given.
On to B1, for which the binding result is recorded as “binds”.
Still for that read-out and setting: the result for B2 reads “binds”; that for B3, “binds”; that for B4, “binds”.
Same read-out and setting: next, B5: “binds”; B6: “binds”.

Another test deals with T4, human FGFR3. Nature of the test: affinity table; method not restated (Biacore SPR per Example 1). (In SPR one partner is held on a chip, and binding of the other changes the refractive index at the surface.)
By Kd is commonly meant the constant that tells how readily two partners part at equilibrium. Low readings indicate higher affinity, high ones lower affinity. Molecule B7 had a Kd of 2.73 nM.
On the same count and under the same terms, next, B8: 4.46 nM.
Still for that read-out and setting: the result for B9 reads 6.85 nM.
The same measure, in the same setting: the result for B10 reads 3.76 nM; that for B11, 3.9 nM.
For B12, binding was put at a Kd of 2.99 nM.
On to B13, for which the Kd was determined as 4.52 nM.
B14 displayed an equilibrium dissociation constant (Kd) of 1.61 nM.
B15: the Kd is 4.73 nM.
Same read-out and setting: the result for B16 reads 1.25 nM; that for B17, 5.41 nM; that for B18, 2.68 nM.

Another test addresses T5, mouse FGFR3. The test is described as above.
In turn, B7 yielded a dissociation constant (Kd) of 3.78 nM.
Same read-out and setting: the result for B8 reads 5.41 nM.
Still for that read-out and setting: next, B9: 8.14 nM.
For B10, the Kd stood at 4.23 nM.
Molecule B11 came in with an equilibrium dissociation constant (Kd) of 4.6 nM.
Same read-out and setting: the result for B12 reads 3.78 nM; that for B13, 5.28 nM; that for B14, 1.73 nM.
As to B15, the Kd turned out to be 5.15 nM.
B16: the Kd is 1.42 nM.
Take B17: the dissociation constant (Kd) was determined as 6.36 nM.
On the same count and under the same terms, next, B18: 3.35 nM.

The target in the next test is T6, N-terminal ECD protein of mouse FGFR3 …. The experiment in a line: SPR (Biacore), FGFR3 ECD immobilised on chip, antibody injected, 1:1 fit.
Method: The N-terminal ECD proteins of FGFR3 from human and mouse were produced with a terminal avidin tag and used in a forward format Biacore assay where proteins were immobilized on a Biacore chip and then the kinetics of antibody interaction with the proteins on the chip were determined. The proteins were immobilized on a Biacore chip for approximately 10,000 response units (RU). Then the antibodies were exposed to the chip for kinetic measurements, following the manufacturer's recommendations (GE Healthcare). Sensorgrams were fit to a 1:1 binding model and analyzed using double-reference subtraction by T200 Evaluation software (GE Healthcare).
The term koff denotes a measure of how fast the partners let go of each other. A lower koff goes with a long-lived complex. For orientation: kon means a measure of how fast the partners come together. Higher therefore signals fast association. B1 showed an equilibrium dissociation constant (Kd) of 6.7 nM, a dissociation rate constant (koff) of 0.00291 s⁻¹ and an association rate constant (kon) of 436000 M⁻¹ s⁻¹.
Taken in the same sequence, the figures for B2 were 6.3 nM, 0.0011 s⁻¹ and 174000 M⁻¹ s⁻¹.
Taken in the same sequence, the figures for B3 were 2.1 nM, 0.00148 s⁻¹ and 705000 M⁻¹ s⁻¹.
B4 had a Kd of 5.5 nM, a koff of 0.000918 s⁻¹ and an association rate constant (kon) of 167000 M⁻¹ s⁻¹.
In the case of B5, binding was characterised by a dissociation constant (Kd) of 1.89 nM, the koff came to 0.00108 s⁻¹ and the association rate constant (kon) came to 571000 M⁻¹ s⁻¹.
Taken in the same sequence, the figures for B6 were 0.81 nM, 0.0006 s⁻¹ and 739000 M⁻¹ s⁻¹.
